Measured values published in PMC10073219.

Molecular target: Drosophila melanogaster TRPA1, dTRPA1-A isoform (Drosophila melanogaster)
Test: cryo-EM structure; purified dTRPA1-A in 25 mM HEPES pH 7.4, 150 mM NaCl, 0.02% GDN; grids prepared at 8 °C; two conformations (state-1, 3.2 Å; state-2, 3.0 Å) from the same sample

Drosophila melanogaster TRPA1, dTRPA1-A isoform (natural protein)
stoichiometry N: 4
